Measurements published in the nanobody polyreactivity screen of Harvey et al. (2022).

Assay: yeast display, Sf9 membrane polyspecificity reagent, FACS + sequencing; frameworks hold sequencing errors
Outline: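 Galactose-induced (36–48 hours) yeast carrying a synthetic nanobody display library were exposed to 10% biotinylated, detergent-solubilized Sf9 membrane reagent at 4 °C for 1 hour. FACS followed streptavidin microbead enrichment, using low and high (top ~1%) gates for expression (anti-HA) and reagent binding (streptavidin). Colony PCR, MiSeq 2 × 250 sequencing and CDR-length filtering followed. Labels for polyreactivity reflect the gate of origin.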
In the case of “QVQLVESGGGLVQAGGSLRLSCAASGRTFWYYAMGWYRQAPGTERELVAAITYRGTRTYADSVKGRFTISRDNAKNTVYLQMNSQKPEDTPVYYCAKDVGYRYSGTMDYWGQGTQVTVSS”, the “polyreactivity (PSR sort gate)” value is reported as “high polyreactivity”. In the case of “QVQLVESGGGLVQAGGSLRLSCAASGRTFWYYAMGWYRQSPGKERELVAVITSGSSTYYADSVKGRFTISRDNAKNTVYLQMNSLKPEDTAVYYCNKLGRIQYDYWGQGTQVTVSS”, the “polyreactivity (PSR sort gate)” value is reported as “high polyreactivity”. With “QVQLVESGGGLVQAGGSLRLSCAASGRTFWYYTMGWYRQAPGKERELVAAISSGGTTNYADSVKGRFTISRDNAKNTVYLQMNSLKPEDTAVYYCAARYRSYAVRLRGYDYWGQGTQVTVSS” the “polyreactivity (PSR sort gate)” value was “high polyreactivity”. In the case of “QVQLVESGGGLVQAGGSLRLSCAASGRTFYANAMGWYRHAPGKERELVASITGSGGRTYYADSVKGRFTISRDNAKNTVYLLMNSLKPEDTAVYYCNADPGWVYRDYEPNGLDYWGQGTQVTVSS”, the “polyreactivity (PSR sort gate)” value is reported as “low polyreactivity”. In the case of “QVQLVESGGGLVQAGGSLRLSCAASGRTFYDNAMGWDRQAPGKARELVAAITQSGGRTYYADSVKGRFTISRDNAKNTGYLQMNSLKPADTAVYYCAASWPNYLYEYWGQGTQVTVSS”, the “polyreactivity (PSR sort gate)” value is reported as “high polyreactivity”. For “QVQLVESGGGLVQAGGSLRLSCAASGRTFYDNAMGWYRQAPGNERELVAAITVRGGSTRYADSVKGRFTISRDNAKNTVYLQLNSLKPEDTAVYYCAATQTPYRYHYDYWGQGTQVTVSS”, the “polyreactivity (PSR sort gate)” value was “high polyreactivity”. For “QVQLVESGGGLVQAGGSLRLSCAASGRTFYDYAMGWYRQAHGKERELVAAIRLSGASTYYADSVKGRFTISRDNAKNTVYLQMNSLKPEDTAVYYCAARYGGRVAYRGYSYYYWGQGTQVTVSS”, the “polyreactivity (PSR sort gate)” value was “high polyreactivity”. In the case of “QVQLVESGGGLVQAGGSLRLSCAASGRTFYDYAMGWYRQAPGKEREFVARITYSGGGTYYADSVKGRFTISRDNAKHTVYLQMNSLKPEDTAVYYCARPFNRYLGLTRNGYTSDYWGQGTQVTVSS”, the “polyreactivity (PSR sort gate)” value is reported as “high polyreactivity”. In the case of “QVQLVESGGGLVQAGGSLRLSCAASGRTFYDYAMGWYRQAPGKERELVAASSRRAGSTYYADSVKGRFTISRDNAKNTVFLEMNSLKPEDTSVYYCAAAYYRRWWRGHHYAFDYWGQGSQVTVSS”, the “polyreactivity (PSR sort gate)” value is reported as “high polyreactivity”. In the case of “QVQLVESGGGLVQAGGSLRLSCAASGRTFYDYAMGWYRQAPGKERELVADITSGGGNTYYADSVKGRFTISRDNAKNTVYLQMNSLKPEDTAVYYCNADYDLYFSGWYDYWGQGTQVTVSS”, the “polyreactivity (PSR sort gate)” value is reported as “low polyreactivity”. In the case of “QVQLVESGGGLVQAGGSLRLSCAASGRTFYDYAMGWYRQAPGKERELVASINSDGSTYYADSVKGRFTISLDNAKNTVYLQMNSLKPEDTAVYYCAADALLYSVYYRMYGYDYWGQGTQVTVSS”, the “polyreactivity (PSR sort gate)” value is reported as “low polyreactivity”. For “QVQLVESGGGLVQAGGSLRLSCAASGRTFYDYDMGCDRQAPGKERELVAAISGGDSTYYADSVKGRFTISRDNAKNTVYLQMNSLKPEDTAVYYCAVTPRGLPYGAYLLYYWGQGTQVTVSS”, the “polyreactivity (PSR sort gate)” value was “low polyreactivity”. For “QVQLVESGGGLVQAGGSLRLSCAASGRTFYFNAMGWYRQAPGKERELVATITRRGGSTSYADSVKGRFTISRDNAKNTVYLQMNSLKPEDTAVYYCGNVSPPKFPERFDYWGQGTQVTVSS”, the “polyreactivity (PSR sort gate)” value was “low polyreactivity”. In the case of “QVQLVESGGGLVQAGGSLRLSCAASGRTFYFYTMGWYRQAPGKERELVATINWSGTSTYYADSVKGRFTISRDNAKNTVYLQMNSLKPEDTAVYYCAVRGGRYKYGYDYWGQGSQVTVSS”, the “polyreactivity (PSR sort gate)” value is reported as “high polyreactivity”. In the case of “QVQLVESGGGLVQAGGSLRLSCAASGRTFYGNAMGWYRQAPGKEREFVAGISWRGGRTYYADSVKGRFTISRDNAKNTVYLQMNSLKPEDTAVYYCAASAGYRGRKQYHENGYWGQGTQVTVSS”, the “polyreactivity (PSR sort gate)” value is reported as “high polyreactivity”. In the case of “QVQLVESGGGLVQAGGSLRLSCAASGRTFYGNGMGWYRQAPGKDRELVAAISWSGGSTYYADSVKGRFTISRDNAKNTVYLQMNSLKPEDTAVYYCAAAYRSFIIGRWYDYWGQGTQVTVSS”, the “polyreactivity (PSR sort gate)” value is reported as “low polyreactivity”. With “QVQLVESGGGLVQAGGSLRLSCAASGRTFYGNVMGWYRQAPGKERELVAAISSRGSRTYYADSVKGRFTISRDNAKNTVYLQMNSLKPEETAVYYCNTYVRNHGLAGPDDYWGQGTLVTVSS” the “polyreactivity (PSR sort gate)” value was “high polyreactivity”. With “QVQLVESGGGLVQAGGSLRLSCAASGRTFYGYAMGWYRPAPGKERELVAAIDRGGSTDYADSVKGRFTISRDNAKNTVYLQLNSLKTEDTAVYYCAKGYDYYGRRYYYWGQGTQVTVSS” the “polyreactivity (PSR sort gate)” value was “high polyreactivity”. With “QVQLVESGGGLVQAGGSLRLSCAASGRTFYGYAMGWYRQAPGKERELVASISWSTGSTHYADSVKGRFTISRDNAKNTVYLQMNSLKPEDTAVYYCAAPFWRDSYVQIDYDYWGQGTQVTVSS” the “polyreactivity (PSR sort gate)” value was “low polyreactivity”. With “QVQLVESGGGLVQAGGSLRLSCAASGRTFYGYAMGWYRQAPGKERELVASISYSGGNTYYADSVKGRFTISRDIAKNTVYLQMNSLKPEDTAVYYCAAEVVFFGWHYDYWGQGTQVTVSS” the “polyreactivity (PSR sort gate)” value was “high polyreactivity”. For “QVQLVESGGGLVQAGGSLRLSCAASGRTFYGYAMGWYRQAPGKERELVAVITRDGSTNYADSVKGRFTISRDNAKNTVYLQMNSLKPEDTAVYYCAAERLAYRVRWRYNQEDYWGQGTQVTVSS”, the “polyreactivity (PSR sort gate)” value was “high polyreactivity”. In the case of “QVQLVESGGGLVQAGGSLRLSCAASGRTFYHNAMGWYRQAPGKERELVASNRWSGGSTYADSVNGRFTISRDNAKNTVYLQMNSLKPEDTAVYYCARRYYRTGYWEPFIALNGYWGQGTKVTVSS”, the “polyreactivity (PSR sort gate)” value is reported as “high polyreactivity”. For “QVQLVESGGGLVQAGGSLRLSCAASGRTFYHYAMGWYRQAPGKEREFVAAISVSGGRTYYADSVKGRFTISRDNAKNTVYLQMNSLKPEDTAVYYCAARSGAQRGGGYWGQGTQVTVSS”, the “polyreactivity (PSR sort gate)” value was “high polyreactivity”. In the case of “QVQLVESGGGLVQAGGSLRLSCAASGRTFYIYAMGWYRQAPGKERELVAAISGSGGSTYYADSVKGRFTISRDNAKNTVYFQMNSLKPEDTAVYYCATKLRRSRYVRYDYWGQGTQVTVSS”, the “polyreactivity (PSR sort gate)” value is reported as “high polyreactivity”. In the case of “QVQLVESGGGLVQAGGSLRLSCAASGRTFYIYAMGWYRQAPGKERELVAAITSVGSTNYADSVKGRFTISRDNAKNTVYLQMNSLKPEDTAVYYCAAASTEGTSGDYDYWGQGTQVTVSS”, the “polyreactivity (PSR sort gate)” value is reported as “low polyreactivity”. In the case of “QVQLVESGGGLVQAGGSLRLSCAASGRTFYIYTMGWYRQAPGKERELVAAISSSGDSTYYADSVKGRFTISRDNAKNTVFLQMNPLKPEDTAVYYCAAYPTYPDEYWGQGTQVTVSS”, the “polyreactivity (PSR sort gate)” value is reported as “low polyreactivity”. In the case of “QVQLVESGGGLVQAGGSLRLSCAASGRTFYKNTMGWYREAPGKEREMVATISQRGGSTYYADSVKGRFTISRDNAKNTVFLQMNSLKPEDTAVYYCYARHYYIWWRSPTRTAMNYWGQGTQVTVSS”, the “polyreactivity (PSR sort gate)” value is reported as “high polyreactivity”. With “QVQLVESGGGLVQAGGSLRLSCAASGRTFYKNTMGWYRQAPGKERELVAGISQRGGRTYYADSVKGRFTISRDNANYTVYLQMNSLKPEDTAVYYCAVRSYGHGFDYWGQGNQVTVSS” the “polyreactivity (PSR sort gate)” value was “high polyreactivity”. With “QVQLVESGGGLVQAGGSLRLSCAASGRTFYKYTMGWYRQAPGKERELVAAITTSGGGTYYADSVKGRFTISRDNAKNTVYIQMNSLKPEDTAVYYCAARYRELRTEYYYWGQGTQVTVSA” the “polyreactivity (PSR sort gate)” value was “high polyreactivity”. With “QVQLVESGGGLVQAGGSLRLSCAASGRTFYLNAMGWYRQAPGKERELVAAISRNGGSTYYADSVKGRFTISRDNAKNTVYLQMNSLKPEDTAVYYCNKNWLGWADPSLDKRYDYWGQGTQVTVSS” the “polyreactivity (PSR sort gate)” value was “high polyreactivity”. With “QVQLVESGGGLVQAGGSLRLSCAASGRTFYLNAMGWYRQAPGKERELVAAITSSGGRTYYADSVKGRFTISRDNAKNTVYLQMNSLKPEDTAVYYCAAVVSSKPSFYWGQGTQVTVSS” the “polyreactivity (PSR sort gate)” value was “low polyreactivity”. For “QVQLVESGGGLVQAGGSLRLSCAASGRTFYLYAMGWYRQAPGKEREFVAAISKRGGSTYYADSVKGRFTISRDNAKNTVYLQMNSLKPEDTAVYYCAAEVFRYRLNQTPTYRGDYWGQGTQVTVSS”, the “polyreactivity (PSR sort gate)” value was “high polyreactivity”. With “QVQLVESGGGLVQAGGSLRLSCAASGRTFYLYAMGWYRQAPGKERELVAAITSAGSTNYADSVKGRFTISRDNAKNTVYLQMNSLKPEDSAVYYCNAYKRGYLYRYNYWGQGTQVTLSS” the “polyreactivity (PSR sort gate)” value was “high polyreactivity”. With “QVQLVESGGGLVQAGGSLRLSCAASGRTFYLYAMGWYRQAPGKERELVAAITSGGSTYYADSVKGRFTISRDNAKNTVYLQMNSLKPEDTAVYYCAAYAYLTAGTSRRRGYWGQGTQVTVSS” the “polyreactivity (PSR sort gate)” value was “high polyreactivity”. With “QVQLVESGGGLVQAGGSLRLSCAASGRTFYLYAMVCYRQAPGKERELVAAITNRGGSTYYADSVKGRFTISRDNAKNTVYLQMNSLKPEDTAVYYCAAQVSVYRGGYGYWGQGTQVTVSS” the “polyreactivity (PSR sort gate)” value was “high polyreactivity”. For “QVQLVESGGGLVQAGGSLRLSCAASGRTFYLYTMGWYRQAPGKERELVAAISRGGRTYADSVKGRFTISRDNAKNTVYLQMNSLKPDDTAVYYCAAESVYHGWSYQHGKGDYWGQGTQVTVSS”, the “polyreactivity (PSR sort gate)” value was “low polyreactivity”. With “QVQLVESGGGLVQAGGSLRLSCAASGRTFYLYTMGWYRQAPGKERELVAAISRGGRTYADSVKGRFTISRDNAKNTVYLQMNSLKPEDTAVYYCAAESVYQGWSYQHGKGDYWGQGTQVTVSS” the “polyreactivity (PSR sort gate)” value was “low polyreactivity”. In the case of “QVQLVESGGGLVQAGGSLRLSCAASGRTFYNYAMGWYRQAPGKERELVAAISWSDGTTYYADSVKGRFTISRDNAKNTVYLQMNSLKPEDTAVYYCAAEFESSFALGFYYWGQGTQVTVSS”, the “polyreactivity (PSR sort gate)” value is reported as “high polyreactivity”. In the case of “QVQLVESGGGLVQAGGSLRLSCAASGRTFYNYAMGWYRQAPGKERELVAAITRGGSTYYADSVKGRFTISRDNAKNTVYLQMNSLKPEDTAVYYCNAYYYIPFEGRGYSKMDYWGQGTQVTVSS”, the “polyreactivity (PSR sort gate)” value is reported as “high polyreactivity”. In the case of “QVQLVESGGGLVQAGGSLRLSCAASGRTFYNYAMGWYRQAPGKERELVASIRKNGGSTYYADSVKGRFTISRDNAKNTVYLQMNSLKPEDTAVYYCDARYWGISRIFPSKYDYWGQGTQVTVSS”, the “polyreactivity (PSR sort gate)” value is reported as “high polyreactivity”.
